The assay addresses USP11 tandem DUSP-UBL domain, tag cleaved (for FP) (human). The experiment in a line: fluorescence polarisation; saturation or displacement not stated for this experiment; 50 mM phosphate buffer pH 7.4, room temperature. Conditions: both partners purified. (In general: In fluorescence polarisation assays a small probe gives low polarisation when free and higher when bound to something large.)

The results in this text go back to PMC13376213 (Nature Communications, 2026).

Ends that are not written are not given here.

Chain of USP11 tandem DUSP-UBL domain, tag cleaved (for FP) (human) (chain, as listed by the source): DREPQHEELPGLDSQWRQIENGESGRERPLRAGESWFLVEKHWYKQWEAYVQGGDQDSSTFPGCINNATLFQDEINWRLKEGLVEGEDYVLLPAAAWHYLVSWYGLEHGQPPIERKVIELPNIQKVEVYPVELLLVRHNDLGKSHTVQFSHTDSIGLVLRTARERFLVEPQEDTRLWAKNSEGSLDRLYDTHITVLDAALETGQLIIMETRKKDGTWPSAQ

B1: ORAI1 peptide used for FP (peptide)
chain: SAVTYPDWIGQSYSEV-NH2
modifications: also: N-terminus FITC-labeled or acetylated, not given here which
For the molecule B1, the Kd – broadly, the free concentration of one partner at which half of the binding sites on the other are occupied at equilibrium, for simple one-to-one binding – was 200 to 300 µM.
